# According to patent US20250352579A1 (HEBEI SENLANG BIOTECHNOLOGY, published 2025):
# Changes are numbered by the printed parent chain.
# T1: CD7-His protein (UniProt P09564 26-180, limits assumed)
# T1 construct: extracellular domain; also called recombinant CD7-His protein; CD7 antigen; not shown: His tag
# T1 sequence (looked up): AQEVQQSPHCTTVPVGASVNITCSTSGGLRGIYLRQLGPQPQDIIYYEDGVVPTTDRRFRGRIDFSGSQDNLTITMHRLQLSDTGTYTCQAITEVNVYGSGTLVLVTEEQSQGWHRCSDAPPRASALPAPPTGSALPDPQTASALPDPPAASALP
# T2: CD7 on cells (K562-CD7 positive cells; KG-1a-GFP-Luc; CCRF-CEM) (UniProt P09564 26-240, limits assumed)
# T2 sequence (looked up): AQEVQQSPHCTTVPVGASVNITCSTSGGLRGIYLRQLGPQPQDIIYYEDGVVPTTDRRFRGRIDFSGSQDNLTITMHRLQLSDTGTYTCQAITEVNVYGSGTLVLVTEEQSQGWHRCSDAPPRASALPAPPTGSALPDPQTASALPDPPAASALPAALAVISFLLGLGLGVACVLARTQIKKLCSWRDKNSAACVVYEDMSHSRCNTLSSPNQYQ
# B1: dVHH-D (other)
# chain (part 1 of 2): QVQLQESGGGLVQTGGSLRLSCEASERTFSSNAVGWFRQAPGKEREFVAAITWSVGTTYYADSVKGRFTISRDNAKNTVYLQMNSLKPEDTAVYYCAASGARHYSGSYLDFGSWGQGTQVTVSS
# chain (part 2 of 2): QVQLQESGGGLVQPGGSLRLSCAASGSTLDYYAIGWFRQAPGKEREGISCISNSGGMTNYADSVKGRFTISRDNAKNTVYLQMNSLKPEDTAVYYCAAGPAWSYCSGYVPAGLDKFGSWGQGTQVTVSS
# notes: also called VHH-10+VHH-12; double VHH antibody dVHH-D; not shown: Linker
# B2: VHH12 (VHH)
# VHH: B1 chain (part 2 of 2)
# notes: Variable region only; also called anti-CD7 nanobody VHH12
# B3: VHH10 (VHH)
# VHH: B1 chain (part 1 of 2)
# notes: Variable region only; also called anti-CD7 nanobody VHH10
# B4: dVHH-E (other)
# chain (part 1 of 2): B1 chain (part 1 of 2)
# chain (part 2 of 2): B1 chain (part 1 of 2)
# notes: also called VHH-10+VHH-10; double VHH antibody dVHH-E; not shown: Linker
# B5: VHH14 single VHH CAR (other)
# chain: QVQLQESGGGLVQPGGSLRLSCTASGLTLGYYAIGWFRQAPGKEREFVSTISASGGMTYYADSVKGRFTISRDNAKNTVYLEMNSLKPEDTAVYYCAAEYLGNLRHFRGDHWGKGTQVTVSSTTPAPRPPTPAPTIASQPLSLRPEACRPAAGGAVHTRGLDFACDIYIWAPLAGTCGVLLLSLVITLYCKRGRKKLLYIFKQPFMRPVQTTQEEDGCSCRFPEEEEGGCELRVKFSRSADAPAYKQGQNQLYNELNLGRREEYDVLDKRRGRDPEMGGKPRRKNPQEGLYNELQKDKMAEAYSEIGMKGERRRGKGHDGLYQGLSTATKDTYDALHMQALPPR
# B6: VHH19 single VHH CAR (other)
# chain: B5 chain with L27R, T28A, L29F, G30S, Y31M, A33V, I34M
# B7: VHH06 single VHH CAR (other)
# chain: QVQLQESGGGLVQAGGSLRLSCAASGRTFSSYNMGWFRQAPGAEREFVAAISRGGGSTYYADSVKGRFTISRDNAKNTVYLQMNSLRPEDTAVYYCADSGARAYSGSYLDFGSWGQGTQVTVSSTTPAPRPPTPAPTIASQPLSLRPEACRPAAGGAVHTRGLDFACDIYIWAPLAGTCGVLLLSLVITLYCKRGRKKLLYIFKQPFMRPVQTTQEEDGCSCRFPEEEEGGCELRVKFSRSADAPAYKQGQNQLYNELNLGRREEYDVLDKRRGRDPEMGGKPRRKNPQEGLYNELQKDKMAEAYSEIGMKGERRRGKGHDGLYQGLSTATKDTYDALHMQALPPR
# B8: VHH20 single VHH CAR (other)
# chain: QVQLQESGGGLVQPGGSLRLSCAASGTTLDDYAVGWFRQAPGKEREGVACISASELSTYYADSVKGRFTISRDNAKNTMYLQMNSLKPEDTAVYYCAARVGRIVDVTSTQYQYWGQGTQVTVSSTTPAPRPPTPAPTIASQPLSLRPEACRPAAGGAVHTRGLDFACDIYIWAPLAGTCGVLLLSLVITLYCKRGRKKLLYIFKQPFMRPVQTTQEEDGCSCRFPEEEEGGCELRVKFSRSADAPAYKQGQNQLYNELNLGRREEYDVLDKRRGRDPEMGGKPRRKNPQEGLYNELQKDKMAEAYSEIGMKGERRRGKGHDGLYQGLSTATKDTYDALHMQALPPR
# B9: VHH12 single VHH CAR (other)
# chain: QVQLQESGGGLVQPGGSLRLSCAASGSTLDYYAIGWFRQAPGKEREGISCISNSGGMTNYADSVKGRFTISRDNAKNTVYLQMNSLKPEDTAVYYCAAGPAWSYCSGYVPAGLDKFGSWGQGTQVTVSSTTPAPRPPTPAPTIASQPLSLRPEACRPAAGGAVHTRGLDFACDIYIWAPLAGTCGVLLLSLVITLYCKRGRKKLLYIFKQPFMRPVQTTQEEDGCSCRFPEEEEGGCELRVKFSRSADAPAYKQGQNQLYNELNLGRREEYDVLDKRRGRDPEMGGKPRRKNPQEGLYNELQKDKMAEAYSEIGMKGERRRGKGHDGLYQGLSTATKDTYDALHMQALPPR
# B10: VHH08 single VHH CAR (other)
# chain: QVQLQESGGGLVQPGGSLRLSCAASGSIFSIHAMAWYRQAPGKQRELVASITVGGRTNYVDSVLGRFTISRDNAKNTVYLQMNSLKPEDTAVYYCNSLLWAGLRDSWGPGTQVTVSSTTPAPRPPTPAPTIASQPLSLRPEACRPAAGGAVHTRGLDFACDIYIWAPLAGTCGVLLLSLVITLYCKRGRKKLLYIFKQPFMRPVQTTQEEDGCSCRFPEEEEGGCELRVKFSRSADAPAYKQGQNQLYNELNLGRREEYDVLDKRRGRDPEMGGKPRRKNPQEGLYNELQKDKMAEAYSEIGMKGERRRGKGHDGLYQGLSTATKDTYDALHMQALPPR
# B11: VHH10 single VHH CAR (other)
# chain: QVQLQESGGGLVQTGGSLRLSCEASERTFSSNAVGWFRQAPGKEREFVAAITWSVGTTYYADSVKGRFTISRDNAKNTVYLQMNSLKPEDTAVYYCAASGARHYSGSYLDFGSWGQGTQVTVSSTTPAPRPPTPAPTIASQPLSLRPEACRPAAGGAVHTRGLDFACDIYIWAPLAGTCGVLLLSLVITLYCKRGRKKLLYIFKQPFMRPVQTTQEEDGCSCRFPEEEEGGCELRVKFSRSADAPAYKQGQNQLYNELNLGRREEYDVLDKRRGRDPEMGGKPRRKNPQEGLYNELQKDKMAEAYSEIGMKGERRRGKGHDGLYQGLSTATKDTYDALHMQALPPR
# B12: VHH07 single VHH CAR (other)
# chain: QVQLQESGGGLVQAGGSLRLSCAASGRTFSSYVMKWFRQAPGKGREFVAGISWSGSLTSYSDSVKGRFTISRDNAKNTVYLQMNSLKPEDTAVYYCAAGEAATMSDTDYGMDYWGKGTQVTVSSTTPAPRPPTPAPTIASQPLSLRPEACRPAAGGAVHTRGLDFACDIYIWAPLAGTCGVLLLSLVITLYCKRGRKKLLYIFKQPFMRPVQTTQEEDGCSCRFPEEEEGGCELRVKFSRSADAPAYKQGQNQLYNELNLGRREEYDVLDKRRGRDPEMGGKPRRKNPQEGLYNELQKDKMAEAYSEIGMKGERRRGKGHDGLYQGLSTATKDTYDALHMQALPPR
# Molecular target: T1, CD7-His protein
# Assay: SPR, CD7-His immobilised on CM5 chip by amino coupling, antibody as analyte
# Experimental: In this example, the affinities of the antibodies were measured using the SPR method (surface plasmon resonance method) by immobilizing the CD7-His protein prepared in Example 1 on the CM5 chip through amino coupling method, using the antibodies (dVHH-D, dVHH-E, VHH10, and VHH12) as analytes for the experiments to detect the affinity of each antibody to the CD7 antigen.
Kd [nM],koff [s⁻¹],kon [M⁻¹ s⁻¹],Binder
3.35,0.000754,225000,B1
1.34,9.95e-05,74200,B2
99.9,0.0164,164000,B3
4.51,0.000557,123000,B4

# Molecular target: T2, CD7 on cells (K562-CD7 positive cells; …)
# Assay: cell-based or functional assay
row,Binder,"killing ratio, CAR-T cells on KG-1a-GFP-Luc, E:T=3:1, 4 h, luciferase [%]"
1,B5,60.4
2,B6,61.7
3,B7,62.2
4,B8,9.38
5,B9,78.2
6,B10,68.5
7,B11,91.4
8,B12,61.6
